From patent publication US20240166765A1, “INFLAMMATORY DISEASE TREATMENT USING ANTI-TISSUE FACTOR ANTIBODIES” (Iconic Therapeutics LLC, priority 2020, published 2024)

Tests used:
Assay in all cases: Epitope binning, chimeric TF construct mapping (live cell staining assay)
Format in all cases: binding
[1] = biological target: T1, chimeric human-rat TF constructs expressed on HEK293 cells (Homo sapiens, UniProt P13726, A200N/K201T/N203H); settings: construct h167-174_r (3); human segment replaced by rat segment
T1 construct: expressed in transfected cells; host or cells: HEK293
Method: (§1) To establish binding of the anti-human TF antibodies to the various TF constructs, HEK293 cells were transfected with a DNA plasmid that co-expresses the TF construct and a green fluorescent protein marker. For a subset of the antibodies, an antibody titration (a 12-point 1:3 dilution series starting at 250 nM) was evaluated on select TF constructs (See international PCT application PCT/US2019/012427 and U.S. utility application Ser. No. 16/959,652, incorporated herein by reference in their entirety). […] Two days after transfection, cells were collected from the tissue culture plate, stained with 15 μg/ml of the indicated anti-TF antibody, washed, stained with anti-human IgG-Fc Alexa Fluor 647 polyclonal antibody, washed, and stained with the viability dye 4′,6-Diamidino-2-Phenylindole, Dihydrochloride. Upon acquisition of 80,000 live events on a flow cytometer, live cells marked with the fluorescent marker were analyzed for the degree of staining by the anti-TF antibody. […] As used herein, the term “live cell staining assay” refers to the antibody binding assay used in this example.
(§2) When “Percentage antibody binding to TF construct relative to hTF” in Tables 51 and 52 was less than 50%, the antibody was considered a non-binder (0) in Tables 53 and 54.

[2] = biological target: T2, chimeric human-rat TF constructs expressed on HEK293 cells (Homo sapiens, UniProt P13726, E58Q/K47I/N50D/Q64Y/V62T/V65T); settings: construct h1-38_r (14); human segment replaced by rat segment
T2 construct: expressed in transfected cells; host or cells: HEK293
Method: as §1, §2

[3] = biological target: T3, chimeric human-rat TF constructs expressed on HEK293 cells (Homo sapiens, UniProt P13726, K100N); settings: construct hTF_K68N
T3 construct: expressed in transfected cells; host or cells: HEK293
Method: as §1, §2

[4] = biological target: T4, chimeric human-rat TF constructs expressed on HEK293 cells (Homo sapiens, UniProt P13726, E160K/E162S/F148Y/L140I/N156K/R163F/S147K/T144V/V151G/V155L); settings: construct h108-132_r (10); human segment replaced by rat segment
T4 construct: expressed in transfected cells; host or cells: HEK293
Method: as §1, §2

[5] = biological target: T5, chimeric human-rat TF constructs expressed on HEK293 cells (Homo sapiens, UniProt P13726, D76N/E58Q/F108L/F82T/G75R/K100N/K47I/K73R/L104E/N50D/Q101W/Q64Y/S79Y/T72D/V62T/V65T/Y83G); settings: construct h1-77_r (25); human segment replaced by rat segment
T5 construct: expressed in transfected cells; host or cells: HEK293
Method: as §1, §2

[6] = biological target: T6, chimeric human-rat TF constructs expressed on HEK293 cells (Homo sapiens, UniProt P13726, I184G/K181N/T186I/W190R/Y188T); settings: construct h146-158_r (5); human segment replaced by rat segment
T6 construct: expressed in transfected cells; host or cells: HEK293
Method: as §1, §2

[7] = biological target: T7, chimeric human-rat TF constructs expressed on HEK293 cells (Homo sapiens, UniProt P13726, A200N/K197R/K201T/N203H/S192D/S195T); settings: construct h159-174_r (6); human segment replaced by rat segment
T7 construct: expressed in transfected cells; host or cells: HEK293
Method: as §1, §2

[8] = biological target: T8, chimeric human-rat TF constructs expressed on HEK293 cells (Homo sapiens, UniProt P13726, D177Q/N170G/R168K/S174T); settings: construct h133-145_r (4); human segment replaced by rat segment
T8 construct: expressed in transfected cells; host or cells: HEK293
Method: as §1, §2

[9] = biological target: T9, chimeric human-rat TF constructs expressed on HEK293 cells (Homo sapiens, UniProt P13726, K197R/S192D/S195T); settings: construct h159-166_r (3); human segment replaced by rat segment
T9 construct: expressed in transfected cells; host or cells: HEK293
Method: as §1, §2

[10] = biological target: T10, chimeric human-rat TF constructs expressed on HEK293 cells (Homo sapiens, UniProt P13726, I184G/T186I/W190R/Y188T); settings: construct h152-158_r (4); human segment replaced by rat segment
T10 construct: expressed in transfected cells; host or cells: HEK293
Method: as §1, §2

[11] = biological target: T11, chimeric human-rat TF constructs expressed on HEK293 cells (Homo sapiens, UniProt P13726, A112W/A121H/DEL115-116/DUP123-123/E127T/E131K/E137D/G113R/INS118HGKETLF/L125P/L136R/N139K/P130R/S120T/S129A/T133L/Y110V/Y126F); settings: construct h78-107_r.v2 (27); human segment replaced by rat segment
T11 construct: expressed in transfected cells; host or cells: HEK293
Method: as §1, §2

TF-011 was tested, and the “Antibody binding to TF construct” value [1] was 1 (between 50% and 150%, the antibody was considered a binder (1)), the “Antibody binding to TF construct” value [2] was 1 (between 50% and 150%, the antibody was considered a binder (1)) and the “Antibody binding to TF construct” value [3] was 1 (between 50% and 150%, the antibody was considered a binder (1)). For the same substance, the “Antibody binding to TF construct” value [4] was 1 (between 50% and 150%, the antibody was considered a binder (1)), the “Antibody binding to TF construct” value [5] was 0 (less than 50%, the antibody was considered a non-binder (0)) and the “Antibody binding to TF construct” value [6] was 1 (between 50% and 150%, the antibody was considered a binder (1)). For the same substance, the “Antibody binding to TF construct” value [7] was 1 (between 50% and 150%, the antibody was considered a binder (1)), the “Antibody binding to TF construct” value [8] was 1 (between 50% and 150%, the antibody was considered a binder (1)) and the “Antibody binding to TF construct” value [9] was 1 (between 50% and 150%, the antibody was considered a binder (1)). For the same substance, the “Antibody binding to TF construct” value [10] was 1 (between 50% and 150%, the antibody was considered a binder (1)) and the “Antibody binding to TF construct” value [11] was 0 (less than 50%, the antibody was considered a non-binder (0)).
